The values that follow come from paper PMC3374832, “The Structure of the Oligomerization Domain of Lsr2 from Mycobacterium tuberculosis Reveals a Mechanism for Chromosome Organization and Protection” (PLoS ONE, 2012).

The data set deals with the molecule itself. The data set is described as follows: SDS-PAGE.

B1: full-length Lsr2 from Mycobacterium tuberculosis (natural protein)
chain: not shown
notes: Lsr2 (Rv3597c) of Mycobacterium tuberculosis H37Rv, full length; also called Rv3597c
As for B1, the binding result is “binds”.
